Here are results for five molecules from US20210032299A1 (Eli Lilly, published 2021).

Starred links: 1 amine or outer side, 2 acyl side, 3 side chain; linkers in the order of their positions; H or OH if unused. Non-standard residues stand in square brackets, D forms with d. Groups on a side chain read outwards from the residue. No end group written: not given here. *: point of attachment. C20 diacid = O=C(O)CCCCCCCCCCCCCCCCCCC(=O)*; γGlu = O=C(O)[C@H](CCC(=O)[*:2])N[*:1]; αMeL = CC(C)C[C@](C)(N)C(=O)O; AEEA = NCCOCCOCC(=O)O; Aib = CC(C)(N)C(=O)O

First the molecules themselves.
T1: human glucose-dependent insulinotropic peptide receptor (human, UniProt P48546 22-466)
T1 sequence (looked up): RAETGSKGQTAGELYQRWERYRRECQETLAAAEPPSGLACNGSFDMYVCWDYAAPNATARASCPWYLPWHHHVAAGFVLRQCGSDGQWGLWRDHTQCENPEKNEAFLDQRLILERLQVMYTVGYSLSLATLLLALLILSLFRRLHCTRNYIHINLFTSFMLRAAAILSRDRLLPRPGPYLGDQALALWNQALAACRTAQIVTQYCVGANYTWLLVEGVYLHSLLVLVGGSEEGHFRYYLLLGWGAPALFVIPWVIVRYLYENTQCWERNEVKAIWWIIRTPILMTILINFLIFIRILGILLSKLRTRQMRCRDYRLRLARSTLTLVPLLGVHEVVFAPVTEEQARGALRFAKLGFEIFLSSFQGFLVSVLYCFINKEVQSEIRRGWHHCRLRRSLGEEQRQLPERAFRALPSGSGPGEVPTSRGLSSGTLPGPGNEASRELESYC

B1: Example 64 (peptide)
peptide: Y[Aib]EGTFISDYSI[αMeL]LDKK([AEEA-AEEA-γGlu-C20 diacid])HQ[Aib]EFVEYLLETGPSSGAPPPS-NH2
modifications: N-terminus assumed
SMILES: CC[C@H](C)[C@H](NC(=O)[C@H](Cc1ccccc1)NC(=O)[C@@H](NC(=O)CNC(=O)[C@H](CCC(=O)O)NC(=O)C(C)(C)NC(=O)[C@@H](N)Cc1ccc(O)cc1)[C@@H](C)O)C(=O)N[C@@H](CO)C(=O)N[C@@H](CC(=O)O)C(=O)N[C@@H](Cc1ccc(O)cc1)C(=O)N[C@@H](CO)C(=O)N[C@H](C(=O)N[C@@](C)(CC(C)C)C(=O)N[C@@H](CC(C)C)C(=O)N[C@@H](CC(=O)O)C(=O)N[C@@H](CCCCN)C(=O)N[C@@H](CCCCNC(=O)COCCOCCNC(=O)COCCOCCNC(=O)CC[C@H](NC(=O)CCCCCCCCCCCCCCCCCCC(=O)O)C(=O)O)C(=O)N[C@@H](Cc1c[nH]cn1)C(=O)N[C@@H](CCC(N)=O)C(=O)NC(C)(C)C(=O)N[C@@H](CCC(=O)O)C(=O)N[C@@H](Cc1ccccc1)C(=O)N[C@H](C(=O)N[C@@H](CCC(=O)O)C(=O)N[C@@H](Cc1ccc(O)cc1)C(=O)N[C@@H](CC(C)C)C(=O)N[C@@H](CC(C)C)C(=O)N[C@@H](CCC(=O)O)C(=O)N[C@H](C(=O)NCC(=O)N1CCC[C@H]1C(=O)N[C@@H](CO)C(=O)N[C@@H](CO)C(=O)NCC(=O)N[C@@H](C)C(=O)N1CCC[C@H]1C(=O)N1CCC[C@H]1C(=O)N1CCC[C@H]1C(=O)N[C@@H](CO)C(N)=O)[C@@H](C)O)C(C)C)[C@@H](C)CC
B2: Example 65 (peptide)
peptide: Y[Aib]EGTFISDYSI[αMeL]LDKK([AEEA-AEEA-γGlu-C20 diacid])HQ[Aib]EFVEYLLEAGPSSGAPPPS-NH2
modifications: N-terminus assumed
SMILES: CC[C@H](C)[C@H](NC(=O)[C@H](Cc1ccccc1)NC(=O)[C@@H](NC(=O)CNC(=O)[C@H](CCC(=O)O)NC(=O)C(C)(C)NC(=O)[C@@H](N)Cc1ccc(O)cc1)[C@@H](C)O)C(=O)N[C@@H](CO)C(=O)N[C@@H](CC(=O)O)C(=O)N[C@@H](Cc1ccc(O)cc1)C(=O)N[C@@H](CO)C(=O)N[C@H](C(=O)N[C@@](C)(CC(C)C)C(=O)N[C@@H](CC(C)C)C(=O)N[C@@H](CC(=O)O)C(=O)N[C@@H](CCCCN)C(=O)N[C@@H](CCCCNC(=O)COCCOCCNC(=O)COCCOCCNC(=O)CC[C@H](NC(=O)CCCCCCCCCCCCCCCCCCC(=O)O)C(=O)O)C(=O)N[C@@H](Cc1c[nH]cn1)C(=O)N[C@@H](CCC(N)=O)C(=O)NC(C)(C)C(=O)N[C@@H](CCC(=O)O)C(=O)N[C@@H](Cc1ccccc1)C(=O)N[C@H](C(=O)N[C@@H](CCC(=O)O)C(=O)N[C@@H](Cc1ccc(O)cc1)C(=O)N[C@@H](CC(C)C)C(=O)N[C@@H](CC(C)C)C(=O)N[C@@H](CCC(=O)O)C(=O)N[C@@H](C)C(=O)NCC(=O)N1CCC[C@H]1C(=O)N[C@@H](CO)C(=O)N[C@@H](CO)C(=O)NCC(=O)N[C@@H](C)C(=O)N1CCC[C@H]1C(=O)N1CCC[C@H]1C(=O)N1CCC[C@H]1C(=O)N[C@@H](CO)C(N)=O)C(C)C)[C@@H](C)CC
B3: Example 66 (peptide)
peptide: Y[Aib]EGTFISDYSI[αMeL]LDKK([AEEA-AEEA-γGlu-C20 diacid])HQ[Aib]DFVEYLLETGPSSGAPPPS-NH2
modifications: N-terminus assumed
SMILES: CC[C@H](C)[C@H](NC(=O)[C@H](Cc1ccccc1)NC(=O)[C@@H](NC(=O)CNC(=O)[C@H](CCC(=O)O)NC(=O)C(C)(C)NC(=O)[C@@H](N)Cc1ccc(O)cc1)[C@@H](C)O)C(=O)N[C@@H](CO)C(=O)N[C@@H](CC(=O)O)C(=O)N[C@@H](Cc1ccc(O)cc1)C(=O)N[C@@H](CO)C(=O)N[C@H](C(=O)N[C@@](C)(CC(C)C)C(=O)N[C@@H](CC(C)C)C(=O)N[C@@H](CC(=O)O)C(=O)N[C@@H](CCCCN)C(=O)N[C@@H](CCCCNC(=O)COCCOCCNC(=O)COCCOCCNC(=O)CC[C@H](NC(=O)CCCCCCCCCCCCCCCCCCC(=O)O)C(=O)O)C(=O)N[C@@H](Cc1c[nH]cn1)C(=O)N[C@@H](CCC(N)=O)C(=O)NC(C)(C)C(=O)N[C@@H](CC(=O)O)C(=O)N[C@@H](Cc1ccccc1)C(=O)N[C@H](C(=O)N[C@@H](CCC(=O)O)C(=O)N[C@@H](Cc1ccc(O)cc1)C(=O)N[C@@H](CC(C)C)C(=O)N[C@@H](CC(C)C)C(=O)N[C@@H](CCC(=O)O)C(=O)N[C@H](C(=O)NCC(=O)N1CCC[C@H]1C(=O)N[C@@H](CO)C(=O)N[C@@H](CO)C(=O)NCC(=O)N[C@@H](C)C(=O)N1CCC[C@H]1C(=O)N1CCC[C@H]1C(=O)N1CCC[C@H]1C(=O)N[C@@H](CO)C(N)=O)[C@@H](C)O)C(C)C)[C@@H](C)CC
B4: Example 67 (peptide)
peptide: Y[Aib]EGTFISDYSI[αMeL]LDKK([AEEA-AEEA-γGlu-C20 diacid])HQ[Aib]DFVEYLLEQGPSSGAPPPS-NH2
modifications: N-terminus assumed
SMILES: CC[C@H](C)[C@H](NC(=O)[C@H](Cc1ccccc1)NC(=O)[C@@H](NC(=O)CNC(=O)[C@H](CCC(=O)O)NC(=O)C(C)(C)NC(=O)[C@@H](N)Cc1ccc(O)cc1)[C@@H](C)O)C(=O)N[C@@H](CO)C(=O)N[C@@H](CC(=O)O)C(=O)N[C@@H](Cc1ccc(O)cc1)C(=O)N[C@@H](CO)C(=O)N[C@H](C(=O)N[C@@](C)(CC(C)C)C(=O)N[C@@H](CC(C)C)C(=O)N[C@@H](CC(=O)O)C(=O)N[C@@H](CCCCN)C(=O)N[C@@H](CCCCNC(=O)COCCOCCNC(=O)COCCOCCNC(=O)CC[C@H](NC(=O)CCCCCCCCCCCCCCCCCCC(=O)O)C(=O)O)C(=O)N[C@@H](Cc1c[nH]cn1)C(=O)N[C@@H](CCC(N)=O)C(=O)NC(C)(C)C(=O)N[C@@H](CC(=O)O)C(=O)N[C@@H](Cc1ccccc1)C(=O)N[C@H](C(=O)N[C@@H](CCC(=O)O)C(=O)N[C@@H](Cc1ccc(O)cc1)C(=O)N[C@@H](CC(C)C)C(=O)N[C@@H](CC(C)C)C(=O)N[C@@H](CCC(=O)O)C(=O)N[C@@H](CCC(N)=O)C(=O)NCC(=O)N1CCC[C@H]1C(=O)N[C@@H](CO)C(=O)N[C@@H](CO)C(=O)NCC(=O)N[C@@H](C)C(=O)N1CCC[C@H]1C(=O)N1CCC[C@H]1C(=O)N1CCC[C@H]1C(=O)N[C@@H](CO)C(N)=O)C(C)C)[C@@H](C)CC
B5: Example 68 (peptide)
peptide: Y[Aib]EGTFISDYSI[αMeL]LDKK([AEEA-AEEA-γGlu-C20 diacid])HQ[Aib]DFVEYLLEAGPSSGAPPPS-NH2
modifications: N-terminus assumed
SMILES: CC[C@H](C)[C@H](NC(=O)[C@H](Cc1ccccc1)NC(=O)[C@@H](NC(=O)CNC(=O)[C@H](CCC(=O)O)NC(=O)C(C)(C)NC(=O)[C@@H](N)Cc1ccc(O)cc1)[C@@H](C)O)C(=O)N[C@@H](CO)C(=O)N[C@@H](CC(=O)O)C(=O)N[C@@H](Cc1ccc(O)cc1)C(=O)N[C@@H](CO)C(=O)N[C@H](C(=O)N[C@@](C)(CC(C)C)C(=O)N[C@@H](CC(C)C)C(=O)N[C@@H](CC(=O)O)C(=O)N[C@@H](CCCCN)C(=O)N[C@@H](CCCCNC(=O)COCCOCCNC(=O)COCCOCCNC(=O)CC[C@H](NC(=O)CCCCCCCCCCCCCCCCCCC(=O)O)C(=O)O)C(=O)N[C@@H](Cc1c[nH]cn1)C(=O)N[C@@H](CCC(N)=O)C(=O)NC(C)(C)C(=O)N[C@@H](CC(=O)O)C(=O)N[C@@H](Cc1ccccc1)C(=O)N[C@H](C(=O)N[C@@H](CCC(=O)O)C(=O)N[C@@H](Cc1ccc(O)cc1)C(=O)N[C@@H](CC(C)C)C(=O)N[C@@H](CC(C)C)C(=O)N[C@@H](CCC(=O)O)C(=O)N[C@@H](C)C(=O)NCC(=O)N1CCC[C@H]1C(=O)N[C@@H](CO)C(=O)N[C@@H](CO)C(=O)NCC(=O)N[C@@H](C)C(=O)N1CCC[C@H]1C(=O)N1CCC[C@H]1C(=O)N1CCC[C@H]1C(=O)N[C@@H](CO)C(N)=O)C(C)C)[C@@H](C)CC

One experiment has as its target human GLP-1 receptor (human, UniProt P43220 24-463). The experiment is described as follows: cell-based or functional assay.
In the case of B1, the “hGLP1R cAMP Rel EC50” value is greater than 5000 nM.

For the molecule B2, the “hGLP1R cAMP Rel EC50” value was greater than 5000 nM.

For the molecule B3, the “hGLP1R cAMP Rel EC50” value is greater than 5000 nM.

As for B4, the “hGLP1R cAMP Rel EC50” value was greater than 5000 nM.

As to B5, the “hGLP1R cAMP Rel EC50” value was greater than 5000 nM.

A further experiment addresses T1, human glucose-dependent insulinotropic …. The experiment is described as follows: cell-based or functional assay.
Turning to B1, the “hGIPR cAMP Rel EC50” value was determined as 0.0448 nM.

Turning to B2, the “hGIPR cAMP Rel EC50” value was 0.0346 nM.

For the molecule B3, the “hGIPR cAMP Rel EC50” value is 0.0786 nM.

Regarding B4, the “hGIPR cAMP Rel EC50” value stood at 0.0627 nM.

In the case of B5, the “hGIPR cAMP Rel EC50” value turned out to be 0.0768 nM.

The target in another experiment is human glucagon receptor (human, UniProt P47871 26-477). The experiment is described as follows: cell-based or functional assay.
Chain of human glucagon receptor (P47871 26-477): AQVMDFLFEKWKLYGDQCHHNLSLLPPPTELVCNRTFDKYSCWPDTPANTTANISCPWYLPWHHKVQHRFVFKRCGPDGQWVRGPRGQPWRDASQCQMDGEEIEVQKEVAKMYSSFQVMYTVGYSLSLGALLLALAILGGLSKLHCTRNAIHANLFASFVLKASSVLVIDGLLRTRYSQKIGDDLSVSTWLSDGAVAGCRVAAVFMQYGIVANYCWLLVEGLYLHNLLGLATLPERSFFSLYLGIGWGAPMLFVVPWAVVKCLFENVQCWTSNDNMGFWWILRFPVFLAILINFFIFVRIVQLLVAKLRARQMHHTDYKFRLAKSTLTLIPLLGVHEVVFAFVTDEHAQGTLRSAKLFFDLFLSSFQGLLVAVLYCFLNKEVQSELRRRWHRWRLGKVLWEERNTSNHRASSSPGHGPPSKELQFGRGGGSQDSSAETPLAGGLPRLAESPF
Turning to B1, the “hGcgR cAMP Rel EC50” value is 3070 nM.

With B2, the “hGcgR cAMP Rel EC50” value turned out to be 850 nM.

On to B3, for which the “hGcgR cAMP Rel EC50” value is greater than 5000 nM.

With B4, the “hGcgR cAMP Rel EC50” value is greater than 5000 nM.

For the molecule B5, the “hGcgR cAMP Rel EC50” value is 3030 nM.
